Measurements taken from US20150299686A1.

How the values were obtained:
[1] = target: FrsA (Fermentation Respiration Switch) protein from Vibrio vulnificus, wild type, recombinant (Vibrio vulnificus) (UniProt Q7MN61); test: cell-based or functional assay
[2] = target: non-phosphorylated recombinant IIA^Glc protein (crr gene product) from Vibrio vulnificus
[3] = target: phosphorylated recombinant IIA^Glc protein (crr gene product) from Vibrio vulnificus

Molecule: non-phosphorylated recombinant IIA^Glc protein (crr gene product) from Vibrio vulnificus
- catalytic activity of FrsA as fold over PDC [1]: 17 times

B1: FrsA (Fermentation Respiration Switch) protein from Vibrio vulnificus, wild type, recombinant (protein)
chain: MSEEVSKNLSETLFVKHKQAIETSALTQYMPTSQSLLDEIKEKNGFSWYRNLRRLQWVWQGVDPIEQEQVLARIASSKHSRTDEQWLDTVMGYHSGNWAYEWTRLGMEHQKRAGEMTNEAASEALFSASLCYSIAGYPHLKSDNLAIQAQVLANSAYLEAAKKSKYIIKQLEIPFEKGKITAHLHLTNTDKPHPVVIVSAGLDSLQTDMWRLFRDHLAKHDIAMLTVDMPSVGYSSKYPLTEDYSRLHQAVLNELFSIPYVDHHRVGLIGFRFGGNAMVRLSFLEQERIKACVILGAPIHDIFASPQKLQQMPKMYLDVLASRLGKSVVDIYSLSGQMAAWSLKVQGFLSSRKTKVPILAMSLEGDPVSPYSDNQMVAFFSTYGKAKKISSKTITQGYEQSLDLAIKWLEDELLR
- Km (pyruvate decarboxylation by FrsA with dephospho-IIA^Glc added) [2]: 390 µM
- kcat (pyruvate decarboxylation by FrsA with dephospho-IIA^Glc added) [2]: 2980 ± 158 s⁻¹
- kcat/Km (pyruvate decarboxylation by FrsA with dephospho-IIA^Glc added) [2]: 7.64e+06 ± 713000 M⁻¹ s⁻¹
- Km (pyruvate decarboxylation by FrsA with phospho-IIA^Glc added) [3]: 390 µM
- kcat (pyruvate decarboxylation by FrsA with phospho-IIA^Glc added) [3]: 1310 ± 48 s⁻¹
- kcat/Km (pyruvate decarboxylation by FrsA with phospho-IIA^Glc added) [3]: 3.36e+06 ± 150000 M⁻¹ s⁻¹
